Laboratory results taken from patent US20150210756A1 (NEW YORK UNIVERSITY, published 2015).
Residue numbers refer to the chain shown, from its start.

T1: HlgA (S. aureus, UniProt P0A071 30-309)
T1 construct: also called gamma hemolysin A; HlgA subunit
T1 sequence: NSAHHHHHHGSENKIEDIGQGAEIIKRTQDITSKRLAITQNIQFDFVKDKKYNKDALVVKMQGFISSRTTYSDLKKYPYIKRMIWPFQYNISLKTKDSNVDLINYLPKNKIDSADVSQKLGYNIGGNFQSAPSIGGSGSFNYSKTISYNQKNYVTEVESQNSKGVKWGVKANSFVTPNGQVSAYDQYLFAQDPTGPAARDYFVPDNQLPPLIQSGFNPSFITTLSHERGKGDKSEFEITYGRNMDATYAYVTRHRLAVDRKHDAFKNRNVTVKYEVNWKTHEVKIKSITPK

T2: Recombinant LukA′B toxoid complex (S. aureus, UniProt Q2FFA2 28-351; P21224 30-338)
T2 construct: also called modified LukA′B toxoid complex
T2 sequence 1: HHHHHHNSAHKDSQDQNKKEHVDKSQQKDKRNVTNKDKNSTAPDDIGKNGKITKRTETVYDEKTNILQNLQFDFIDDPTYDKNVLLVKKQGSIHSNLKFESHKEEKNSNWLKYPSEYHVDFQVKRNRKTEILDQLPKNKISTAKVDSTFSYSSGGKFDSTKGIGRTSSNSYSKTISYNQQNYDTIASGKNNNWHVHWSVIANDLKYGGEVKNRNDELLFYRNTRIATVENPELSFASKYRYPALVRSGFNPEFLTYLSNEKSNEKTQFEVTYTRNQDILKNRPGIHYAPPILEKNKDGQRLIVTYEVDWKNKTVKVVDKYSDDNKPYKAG
T2 sequence 2: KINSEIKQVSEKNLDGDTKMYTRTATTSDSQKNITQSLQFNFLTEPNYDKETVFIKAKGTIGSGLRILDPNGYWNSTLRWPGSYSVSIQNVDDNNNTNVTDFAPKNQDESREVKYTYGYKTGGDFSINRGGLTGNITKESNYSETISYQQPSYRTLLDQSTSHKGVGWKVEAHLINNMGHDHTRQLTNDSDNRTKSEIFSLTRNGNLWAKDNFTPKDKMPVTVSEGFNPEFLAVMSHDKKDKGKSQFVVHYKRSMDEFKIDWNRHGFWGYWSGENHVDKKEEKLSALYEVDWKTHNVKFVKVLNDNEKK

T3: LukD (S. aureus, UniProt Q2FXB1 27-327)
T3 construct: also called leukotoxin D
T3 sequence: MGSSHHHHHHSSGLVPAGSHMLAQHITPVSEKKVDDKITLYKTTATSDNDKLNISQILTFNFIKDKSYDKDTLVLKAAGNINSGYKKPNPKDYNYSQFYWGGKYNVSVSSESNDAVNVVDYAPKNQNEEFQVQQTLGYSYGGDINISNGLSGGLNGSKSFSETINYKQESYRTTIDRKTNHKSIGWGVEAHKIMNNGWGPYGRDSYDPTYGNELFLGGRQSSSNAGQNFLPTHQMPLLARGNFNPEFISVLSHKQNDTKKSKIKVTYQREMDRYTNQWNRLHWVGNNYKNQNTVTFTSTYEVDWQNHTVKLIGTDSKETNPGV

B1: Luk151 (designed binder)
chain: LPAPKNLVVSRVTEDSARLSWTAPDAAFDSFGITYTEVYWWGEAIVLTVPGSERSYDLTGLKPGTEYTVTIPGVKGGWISAPLSAIFTT
B2: Luk129 (designed binder)
chain: LPAPKNLVVSRVTEDSARLSWTAPDAAFDSFNINYPEEFHGGEAIVLTVPGSERSYDLTGLKPGTEYEVWIWGVKGGSSSNPLSAIFTT
B3: Luk17 (designed binder)
chain: LPAPKNLVVSRVTEDSARLSWTAPDAAFDSFWITYEEKFYRGEAIVLTVPGSERSYDLTGLKPGTEYKVWIVGVKGGQGSWPLSAIFTT
notes: also called Luk17 anti-LukAB FN3 domain; not shown: C-terminal poly-histidine tag
B4: Luk19 (designed binder)
chain: LPAPKNLVVSRVTEDSARLSWYHAIHRLNHFDSFLIQYQESEKVGEAIVLTVPGSERSYDLAGLKPGTEYTVSIYGVLPDAFVSSNPLSAIFTT
notes: not shown: C-terminal poly-histidine tag
B5: Luk20 (designed binder)
chain: B4 chain with A62T
notes: as for B4
B6: Luk24 (designed binder)
chain: LPAPKNLVVSRVTEDSARLSWTAPDAAFDSFQIGYFELWPNGEAIVLTVPGSERSYDLTGLKPGTEYEVFIRGVKGGLYSYPLSAIFTT
notes: as for B4
B7: Luk8 (designed binder)
chain: LPAPKNLVVSRVTEDSARLSWKRKPWAPIFDSFLIQYQESEKVGEAIVLTVPGSERSYDLTGLKPGTEYTVSIYGVWDHAGPKYEIESNPLSAIFTT
notes: as for B4
B8: Luk21 (designed binder)
chain: B7 chain with K22V, R23T, P28E, I29Y
notes: as for B4
B9: Luk12 (designed binder)
chain: LPAPKNLVVSRVTEDSARLSWRAKPWAPKFDSFLIQYQESEKVGEAIVLTVPGSERSYDLTGLKPGTEYTVSIYGVKASEKFIESNPLSAIFTT
notes: also called Luk12 anti-LukD FN3 domain; not shown: C-terminal poly-histidine tag
B10: Luk11 (designed binder)
chain: B9 chain with K77S, S79I, E80K, K81P, F82G, I83H, E84T
notes: as for B4
B11: Luk22 (designed binder)
chain: B9 chain with T70A
notes: also called anti-LukD FN3 domain Luk22; not shown: C-terminal poly-histidine tag
B12: Luk9 (designed binder)
chain: LPAPKNLVVSRVTEDSARLSWDRTYSLLNYFDSFLIQYQESEKVGEAIVLTVPGSERSYDLTGLKPGTEYTVSIYGVGGQHPTYESNPLSAIFTT
notes: as for B4
B13: Luk10 (designed binder)
chain: LPAPKNLVVSRVTEDSARLSWAASENAFVFDSFLIQYQESEKVGEAIVLTVPGSERSYDLTGLKPGTEYTVSIYGVGGKLHNQFEWLSNPLSAIFTT
notes: also called anti-LukD FN3 domain Luk10; not shown: C-terminal poly-histidine tag
B14: Luk58 (designed binder)
chain: LPAPKNLVVSRVTEDSARLSWTAPDAAFDSFDIEYDESAHFGEAIVLTVPGSERSYDLTGLKPGTEYIVFIYGVKGGYASIPLSAIFTT
notes: as for B4
B15: Luk59 (designed binder)
chain: LPAPKNLVVSRVTEDSARLSWTAPDAAFDSFDISYNEFAWSGEAIVLTVPGSERSYDLTGLKPGTEYVVYIHGVKGGPTSYPLSAIFTT
notes: as for B4
B16: CR5133 PRASA A6 LC-D (Construct 5) (other)
heavy: EVQLVETGGGLVKPGGSLRLSCSASRFSFRDYYMTWIRQAPGKGPEWVSHISGSGSTIYYADSVRGRFTISRDNAKSSLYLQMDSLQADDTAVYYCARGGRATSYYWVHWGPGTLVTVSSASTKGPSVFPLAPSSKSTSGGTAALGCLVKDYFPEPVTVSWNSGALTSGVHTFPAVLQSSGLYSLSSVVTVPSSSLGTQTYICNVNHKPSNTKVDKKVEPKSCDKTHTCPPCPAPPVAGPDVFLFPPKPKDTLMISRTPEVTCVVVDVSHEDPEVKFNWYVDGVEVHNAKTKPREEQYNSTYRVVSVLTVLHQDWLNGKEYKCKVSNAALPAPIAKTISKAKGQPREPQVYTLPPSRDELTKNQVSLTCLVKGFYPSDIAVEWESNGQPENNYKTTPPVLDSDGSFFLYSKLTVDKSRWQQGNVFSCSVMHEALHNRFTQKSLSLSPGK
light: EIVLTQSPATLSLSPGERATLSCRASQSVSGYLGWYQQKPGQAPRLLIYGASSRATGIPDRFSGSGSGTDFTLTISRLEPEDFAVYYCQQYGSSPLTFGGGTKLEIKRTVAAPSVFIFPPSDEQLKSGTASVVCLLNNFYPREAKVQWKVDNALQSGNSQESVTEQDSKDSTYSLSSTLTLSKADYEKHKVYACEVTHQGLSSPVTKSFNRGECGGGGSGGGGSGGGGSGGGGSLPAPKNLVVSRVTEDSARLSWRAKPWAPKFDSFLIQYQESEKVGEAIVLTVPGSERSYDLTGLKPGTEYTVSIYGVKASEKFIESNPLSAIFTT
B17: CR5133 PRASA A6 HC-AB (Construct 6) (other)
heavy: EVQLVETGGGLVKPGGSLRLSCSASRFSFRDYYMTWIRQAPGKGPEWVSHISGSGSTIYYADSVRGRFTISRDNAKSSLYLQMDSLQADDTAVYYCARGGRATSYYWVHWGPGTLVTVSSASTKGPSVFPLAPSSKSTSGGTAALGCLVKDYFPEPVTVSWNSGALTSGVHTFPAVLQSSGLYSLSSVVTVPSSSLGTQTYICNVNHKPSNTKVDKKVEPKSCDKTHTCPPCPAPPVAGPDVFLFPPKPKDTLMISRTPEVTCVVVDVSHEDPEVKFNWYVDGVEVHNAKTKPREEQYNSTYRVVSVLTVLHQDWLNGKEYKCKVSNAALPAPIAKTISKAKGQPREPQVYTLPPSRDELTKNQVSLTCLVKGFYPSDIAVEWESNGQPENNYKTTPPVLDSDGSFFLYSKLTVDKSRWQQGNVFSCSVMHEALHNRFTQKSLSLSPGKGGGGSGGGGSGGGGSGGGGSMLPAPKNLVVSRVTEDSARLSWTAPDAAFDSFWITYEEKFYRGEAIVLTVPGSERSYDLTGLKPGTEYKVWIVGVKGGQGSWPLSAIFTT
light: EIVLTQSPATLSLSPGERATLSCRASQSVSGYLGWYQQKPGQAPRLLIYGASSRATGIPDRFSGSGSGTDFTLTISRLEPEDFAVYYCQQYGSSPLTFGGGTKLEIKRTVAAPSVFIFPPSDEQLKSGTASVVCLLNNFYPREAKVQWKVDNALQSGNSQESVTEQDSKDSTYSLSSTLTLSKADYEKHKVYACEVTHQGLSSPVTKSFNRGEC
notes: also called mAb 5133 PRASA A6 HC LukAB
B18: CR5133 PRASA A6 LC-D HC-AB (Construct 7) (other)
heavy: B17 heavy
light: B16 light
notes: also called PRASA A6 LC-D AB construct 7

Target: T1, HlgA
Assay: ELISA on purified, recombinant HlgA

| Binder | binding result |
| --- | --- |
| B1 | binds |
| B2 | binds |

Target: T2, Recombinant LukA′B toxoid complex
Assay: ELISA after cis-display panning

| Binder | binding result |
| --- | --- |
| B3 | binds |
| B4 | binds |
| B5 | binds |
| B6 | binds |

Target: T3, LukD
Assay: ELISA after cis-display panning

| Binder | binding result |
| --- | --- |
| B7 | binds |
| B8 | binds |
| B9 | binds |
| B10 | binds |
| B11 | binds |
| B12 | binds |
| B13 | binds |

Target: T4, LukE (S. aureus, UniProt Q2FXB0 24-306)
T4 construct: also called leukotoxin E
Assay: ELISA after cis-display panning

| Binder | binding result |
| --- | --- |
| B14 | binds |
| B15 | binds |

Target: T5, Protein A (Staphylococcus aureus, UniProt P38507 37-477)
T5 construct: also called S. aureus Protein A; SpA
Assay: direct ELISA on coated biotinylated Protein A

| Binder | binding result |
| --- | --- |
| B16 | no binding |
| B17 | no binding |
| B18 | no binding |

Target: human FcγRI (human, UniProt P12314 16-288)
Sequence (P12314 16-288 limits assumed): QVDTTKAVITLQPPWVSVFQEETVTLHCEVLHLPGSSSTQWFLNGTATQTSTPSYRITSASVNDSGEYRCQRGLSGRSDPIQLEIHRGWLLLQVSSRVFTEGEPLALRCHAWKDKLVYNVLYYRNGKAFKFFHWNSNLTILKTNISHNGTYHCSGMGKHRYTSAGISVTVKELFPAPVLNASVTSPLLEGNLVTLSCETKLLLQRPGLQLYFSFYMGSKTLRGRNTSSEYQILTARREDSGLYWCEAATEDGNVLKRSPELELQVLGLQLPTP
Assay: AlphaScreen competition against biotinylated IgG1

| Binder | binding result |
| --- | --- |
| B16 | no binding |
| B17 | no binding |
| B18 | no binding |

Target: human FcγRIIIa (V158) (human, UniProt P08637 17-208)
Sequence (P08637 17-208 F176V limits assumed): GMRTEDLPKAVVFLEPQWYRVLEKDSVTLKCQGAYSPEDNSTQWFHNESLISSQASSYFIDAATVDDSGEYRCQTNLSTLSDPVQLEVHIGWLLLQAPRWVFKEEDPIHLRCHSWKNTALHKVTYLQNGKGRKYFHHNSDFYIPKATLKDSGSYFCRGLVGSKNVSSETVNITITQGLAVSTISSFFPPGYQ
Assay: AlphaScreen competition against biotinylated IgG1

| Binder | binding result |
| --- | --- |
| B16 | binds |
| B17 | binds |
| B18 | binds |
